Test system: K4 kissing-loop RNA reporter
Assay: apparent KD of K4 kissing-loop reporter; higher = weaker reporter binding
Conditions: Eterna round: R107; input ligand: none
Method: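 RNA-MaP round R107: designed RNA switches with theophylline, tryptophan, arginine or FMN aptamers are transcribed on-chip within common flanks. They are titrated with a labelled K4 kissing-loop RNA reporter in RNA-MaP buffer (100 mM Tris pH 7.5, 80 mM KCl, 4 mM MgCl2), without ligand or with the indicated ligand. Median apparent KD per design.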
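Also: bound reporter read as fluorescence of individual clusters on recovered sequencing chips by microscopy, with normalized cluster intensities fitted with a binding model.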

| Sequence | apparent KD of K4 kissing-loop reporter |
| --- | --- |
| AAUCGCAGUGAUGUUGCGAUUCCGUUGAGGGAGGAUAUUGGUAAUACAAGAAGGUUCGGUUACGGGAGAUGUUAGUAAUAGGGCC [Exclusion FMN A GF21] | 61.8 nM |
| CUUAAGAUAUGAGUGAUGUUUAUGUCCGAAGGAGCGUGCGAAAGUACAGGUAGGUCGCGGAUGUGAGUGAUGUUUAUGUAAGCGA [KL-XArg-A14 #analogue] | 120 nM |
| GGUAGCAUGGCGGCCGCCACUUCGAAUAAGUGAUGUUUAUUUGACUGAGCACCCUAUGCCAUGUGAAGGACCGGGCCAUGCUACC | 157 nM |
| CGUACGGUUUCUUUCUUUCCGUACGAGUGCCGAGGACCGGUACGGCCGCCACUCGCUACAGCCUAGUGAUGUUAGGCAUUUCUUU | 105 nM |
| UACCUGCUGUCAGGAUAUGAGUGCAGUGAUGUUGCACUCAACGUAACCAUCUUGAAAUACAAACACUCAGAAGGGACGCACGAAG [Isattema] | 140 nM |
| UUGGAAAUCAGAAGGAGCGUCUAAAAUGAAGGAACCAGUGAUGUUGGUUUUAUUUAAUGAAGACAGGUAGGUCGCUGAAUUUUUA [Same State Arginie B GF 18] | 94.4 nM |
| CGCAGUGAUGUUGCGAGUAGAUACAGGGAAGGAGCGCCGUAGUAGGCAGGUAGGUCGCCCACGCAGUGAUGUUGCGUCAUAGGGU [Exclusion Arginine A GF 5] | 97.1 nM |
| GUCUGAUGCGUUGAUACCAGUCCUUCAGUGAUGUUGCAAGCGCGGCCUAUCAAGCAAUCCGACCCUUGGCAGCAAUAGGUCCGAA [theeternabot_exclusion_KL_Theo_B_9] | 850 nM |
| AAACUUGCAGUGAUGUUGCAAGUAGGUGAUACCAGCAUCGAAAGAUGCCCUUGGCAGCACCAAAACAUCACUUAGGUGCUGUCUA [(H1)-(H2)-(T1)-(T2)-(H)'-(T)'_Design6] | 622 nM |
| CUUGGUGGCUACAUCAGGAAUUGCGGCGGAAAGGAUAUUCAUUGGCGAAGAAGGUUCCAAGUGACGAGUGAUGUUCUUCGUAAGG [theeternabot_sameState_KL_FMN_A_13] | 802 nM |
| AGCGGCCAGUCGGCCGCCACUCCAGGCAGUGAUGUUGCUAAGUUUCUACUAGAGUGAUGUUCUAAGAGGACCGGGACUGACGUAU [Exclusion Tryptophan B Gf 8] | 199 nM |
| UGUCAUUGGUCGGCCGCCACUUCGGUCAAAGACCAUAAAGAGUGAUGUUCUUAAGACGAAAGUCGAAGGACCGGGACCGAUGACU [TrypBS 11 #SwitchBubble #K4Middle] | 1200 nM |
| AUGGUUGUCGUAGGAUAUGUAGGAUAUUCCUAUAGCAGUGAUGUUGCUAAUAUCUUGGAAAGAAGGACAGAAGGACGAUAACCAC [KL-SSFMN-B2 #analogue] | 119 nM |
| AGUAGGAAACUACAAUCCUCUCUUACUGAAGGAGCGCGUGAAAACGCAGGUAGGUCGCAGGAUUUGAGAGUGAUGUUCUCAUUAA [Ex Arginine A K4 16] | 231 nM |
| AAUACGUUCACGGCCGCCACUGAAUAAUUGGUAAGUAGUGAUGUUACUUUACAUAUCUUAUUUAACAGGACCGGGUGAUCGUUUA [JR_Nu_ExcTryptoB_Sub028] | 122 nM |
| UCACGUGCCAGUGAUGUUGGCGUACGUGAUACCAGAACAAUAAAGUUCCCUUGGCAGCACAAAUAUGCCAAGUUAGAUGUAUGAU [Exclusion Theophylline A GF 3] | 123 nM |
| ACUUAUUGUGUCGAUACCAGCAGGUGACGACGCCUCAUGGCUGACGAGUGAUGUUCGACUUGCCCUUGGCAGCGACAUACGCCGG [theeternabot_sameState_KL_Theo_B_12] | 356 nM |
| GAUUCAGUGAUGUUGGAAGGCGAGCGGGAUACCAGCCGAGACUCAGGCCCUUGGCAGCCCACAUAUCCCAGGUAGAUAGUCGCUC [Same State - Theophylline A (Freestyle 10)] | 325 nM |
| AUUCAGAUCUGAAGGAGCGCGUUGACAUAUUGCUUCAUUGAGCAGUGAUGUUGCUCAGUAACGCAGGUAGGUCGCAGAUCUGGCC [Arg B Ex t7a] | 99 nM |
| GUGCAGUGAUGUUGCACGAGGAAAGACGAUACCAGCCGUAAAUAAGGCCCUUGGCAGCGUAGGCUAGCAUAAAGUAUGCCAGUCU [Geleerra] | 121 nM |
| UGACUGGACUGAAGGAGCGCUAAACUCCUAGUGAUGUUAGGGAACCGAGACAAAGUCUCGAGGCAGGUAGGUCGCAGUCUAGUCU [FiskerMod 2 - Jieux - Same State - Arginine B] | 307 nM |
| GUUUUAUAAGAGGAUACCAGUACAAAUAAAGUACAUUAAUAGUAGAGUGAUGUUCUAAAGUACCCUUGGCAGCUUAGAUUAAGUU [ExTheophylB.E] | 170 nM |

Same assay, conditions: Eterna round: R107; input ligand: theophylline 20 uM

| Sequence | apparent KD of K4 kissing-loop reporter |
| --- | --- |
| UACUAUAUUCUGUCGUUUUUAUUAGUUUGUCAGGAUAUCGUUUAUUCGAGAAGGGACACUGUCUAGUGAUGUUAGACAUUUCUUU [#04 K4 FMN A Exclusion] | 87 nM |
| AAUAAAAUCACGGCCGCCACUGAUUUUUUUAUUAGGAGUGAUGUUCCUUUGUCUAUAUACCUUAACAGGACCGGGUGAAUAUUUA [JR_SSTryptoB_Sub022] | 95.5 nM |
| AGUCGAGAUUAUAGACUCGACAGGUCAGAAGGAGCGACGAAUUCGUCAGGUAGGUCGCUGACAUAGCAGUGAUGUUGCUAUACGG [Arg A SS t1] | 163 nM |
| UAUCAGAUUACUGAUACCAGUCUAAAGACAGUGAUGUUGUCUGAUCGACCACGAUCAAAGGACCCUUGGCAGCAGUGUACUAUUC [#29 K4 Theophylline B Same State] | 188 nM |
| GGCCGGUUGAAAGGCCGGCCAGAAACCGAAGGAGCGCGAAGAAACGCAGGUAGGUCGCGGAAAACAUGACCAGUGAUGUUGGUCG | 152 nM |
| GCCGUAGAUGGAAGGAGCGUGGUUAAUGUAAGUGAUGUUUACGAGGUUAACAAUUGACCGCCACAGGUAGGUCGCCAUCUACGGC | 70.5 nM |
| UAUGUACGCGGGUAACGGUACAUCGAGGAAGGAGCGUGCGCAGGCACAGGUAGGUCGCCUCAGCGCACGAGUGAUGUUCGUGGGC [Rere] | 298 nM |
| AGAGUUAUGCGAGGAUAUGCAGUUAGUACUCAAAGAGUACUAACGCAGAGUGAUGUUCUGUGAAACGCAGAAGGUGCAUAACUCA [Omei KL FMN B SS B v4] | 480 nM |
| CGCAAGCAGCCAGUGAUGUUGGCCGCCUUGCGAGGACCGGUACGGCCGCCACUCGAAGGCGGCUACUGGUAAACCGCCUAACGGA [Onzaenla] | 85.4 nM |
| UAAUAUAAUCUGUCGUUUACAAUAUUUAGUCAGGAUAUCGUAUAUUCGAGAAGGGACACUAUCUAGUGAUGUUAGAUAUUUCUUU [JR_ExcFMNA_Sub014] | 67 nM |
| AGACUACCUACACUGUCAAUAGACAGUGACUAGGAUAUGCUGAUAAGCAGAAGGAGUGAUGUUCCUGGUAGUCAAAUAAAAUAAU [FmnAX 12 #SwitchBubble #StaticStem #K4Early] | 323 nM |
| UGAUAGGACAGAAGGAGCGGAAGUGAUGUUUCCAAAAGGCUAAGGUGUCAAAAGACACCCUUCCAGGUAGGUCGCUGUCCUAUCU | 260 nM |
| CGGCCCGGCGCGGCCGCCACUGUGCCUGGGCGCUUGCCGAGUGAUGUUCGUCGGCGGUCGGGUGGCAGGACCGGGCGCCGGUCCG [BDazzled - #26 SS Tryptophan B] | 123 nM |
| AGUCGCAGUGAUGUUGCGAUUCCGUUGAGGGAGGAUAUUGGUAAUACAAGAAGGCCCGGCUACGGGAGAUGUUAGCAAUAGGGCC [Exclusion FMN A GF20] | 65 nM |
| AUUUGUUUAUGUGAUACCAGACUUUGCAGUGAUGUUGCAUUUAUUUUAGAAUAUAAUUUAGUCCCUUGGCAGCACUAUGUAUUUA [JR_SSTheophyB_Sub008] | 109 nM |
| GGAUAGGACAGAGGAUAUGGACAGUCUACAAAGUAGGCUGAAUAAAUCCUUGAAUGGAGUGAUGUUCCAGAAGGCUGUCCUAUCG [FmnBX 22 #SwitchBubble #StaticStem #Palindromic] | 481 nM |

| Sequence | apparent KD of K4 kissing-loop reporter |
| --- | --- |
| UAGCGGGCGAUUCGACGUGCGUCCAGUCAUCGAGGACCGGUACGGCCGCCACUCGCCGGAGUGAUGUUCCGGUACGUCAUAUAAU [theeternabot_sameState_KL_Trp_A_35] | 422 nM |
| UGUCAUUGGUCGGCCGCCACUAUAAUAAAAGAGUGAUGUUCUAAAAGACGGACAAAAGUCUGUCAUAGGACCGGGACCGAUGACU [TrypBS 25 #SwitchBubble #StaticStem] | 131 nM |
| AUUAAUAACAGAGGAUAUGCAUUUUUAUUAUUUUUUAUUAUUAUAUGCAGUGAUGUUGCAUAUUAAGCAGAAGGCUGAUUUAUUU [JR_SSFMNB_Sub013] | 110 nM |
| GCACUUCUCAGUGAUGUUGAGUAAUCGGAAGGAGCGCGUGAAAACGCAGGUAGGUCGCCGAUACAUGAAGUAUCUUCGUGUGUGC [Arginine A K4 25] | 279 nM |
| ACGUGUCACUGAAGGAGCGUCUACCGAAUACGAGUGAUGUUGGUAUACCACUUAUAUAGUGGACAGGUAGGUCGCAGUGAUACGU [Arg B Ex t4] | 757 nM |
| CUUAAGAUAUGAGUGAUGUUUAUGUCCGAAGGAGCGUGCGAAAGUACAGGUAGGUCGCGGAUGUGAGUGAUGUUUAUGUAAGCGA [KL-XArg-A14 #analogue] | 75 nM |
| GGUAGCAUGGCGGCCGCCACUUCGAAUAAGUGAUGUUUAUUUGACUGAGCACCCUAUGCCAUGUGAAGGACCGGGCCAUGCUACC | 208 nM |
| CGUACGGUUUCUUUCUUUCCGUACGAGUGCCGAGGACCGGUACGGCCGCCACUCGCUACAGCCUAGUGAUGUUAGGCAUUUCUUU | 146 nM |
| UACCUGCUGUCAGGAUAUGAGUGCAGUGAUGUUGCACUCAACGUAACCAUCUUGAAAUACAAACACUCAGAAGGGACGCACGAAG [Isattema] | 167 nM |
| UUGGAAAUCAGAAGGAGCGUCUAAAAUGAAGGAACCAGUGAUGUUGGUUUUAUUUAAUGAAGACAGGUAGGUCGCUGAAUUUUUA [Same State Arginie B GF 18] | 116 nM |
| CGCAGUGAUGUUGCGAGUAGAUACAGGGAAGGAGCGCCGUAGUAGGCAGGUAGGUCGCCCACGCAGUGAUGUUGCGUCAUAGGGU [Exclusion Arginine A GF 5] | 116 nM |
| GUCUGAUGCGUUGAUACCAGUCCUUCAGUGAUGUUGCAAGCGCGGCCUAUCAAGCAAUCCGACCCUUGGCAGCAAUAGGUCCGAA [theeternabot_exclusion_KL_Theo_B_9] | 872 nM |
| AAACUUGCAGUGAUGUUGCAAGUAGGUGAUACCAGCAUCGAAAGAUGCCCUUGGCAGCACCAAAACAUCACUUAGGUGCUGUCUA [(H1)-(H2)-(T1)-(T2)-(H)'-(T)'_Design6] | 603 nM |
| CUUGGUGGCUACAUCAGGAAUUGCGGCGGAAAGGAUAUUCAUUGGCGAAGAAGGUUCCAAGUGACGAGUGAUGUUCUUCGUAAGG [theeternabot_sameState_KL_FMN_A_13] | 579 nM |
| AGCGGCCAGUCGGCCGCCACUCCAGGCAGUGAUGUUGCUAAGUUUCUACUAGAGUGAUGUUCUAAGAGGACCGGGACUGACGUAU [Exclusion Tryptophan B Gf 8] | 216 nM |
